{"source": "patent US10781262B2", "about": "“Combination therapy of T cell activating bispecific antigen binding molecules and PD-1 axis binding antagonists” (Hoffmann-La Roche Inc., priority 2014, dated 2020); as to binding of analyte in solution 16D5 TCB to huFolR1 captured on the immobilized binder: key: + means binding; − means no binding; +/− means weak binding; as to binding of analyte in solution 21A5 TCB to huFolR1 captured on the immobilized binder: key: + means binding; − means no binding; +/− means weak binding; as to binding of analyte in solution 36F2 IgG to huFolR1 captured on the immobilized binder: key: + means binding; − means no binding; +/− means weak binding; as to binding of analyte in solution 9D11 TCB to huFolR1 captured on the immobilized binder: key: + means binding; − means no binding; +/− means weak binding", "molecules": {"B1": {"name": "Mov19: reference molecule, the human FolR1 binder Mov19 (IgG) (antibody, V domains shown)", "VH": "QVQLQQSGAELVKPGASVKISCKASGYSFTGYFMNWVKQSHGKSLEWIGRIHPYDGDTFYNQNFKDKATLTVDKSSNTAHMELLSLTSEDFAVYYCTRYDGSRAMDYWGQGTTVTVSS", "VL": "DIELTQSPASLAVSLGQRAIISCKASQSVSFAGTSLMHWYHQKPGQQPKLLIYRASNLEAGVPTRFSGSGSKTDFTLNIHPVEEEDAATYYCQQSREYPYTFGGGTKLEIK"}}, "key": {"[1]": {"molecular_target": "T1, human Folate Receptor 1 (FolR1-Fc) (Homo sapiens, UniProt P15328)", "T1 construct": "the extracellular domain of the antigen linked to the hinge region of Fc-knob; made in house; host or cells: HEK293 EBNA", "experiment": "SPR avidity to Folate Receptor 1 (bivalent binding)", "conditions": "bivalent binding (avidity), ligand huFolR1", "source_text": "The immobilization level was about 300-400 RU. […] The dissociation was monitored for 600 seconds."}, "murine FolR1": {"molecular_target": "murine FolR1 (Mus musculus, UniProt P35846)", "conditions": "IgG injected for 60 seconds at 500 nM", "method": "(§1) Binding of FolR1 binders as IgG or in the T-cell bispecific format to different recombinant folate receptors (human FolR1, 2 and 3, murine FolR1 and cynomolgus FolR1; all as Fc fusions) was assessed by surface plasmon resonance (SPR). All SPR experiments were performed on a Biacore T200 at 25° C. with HBS-EP as running buffer (0.01 M HEPES pH 7.4, 0.15 M NaCl, 3 mM EDTA, 0.005% Surfactant P20, Biacore, Freiburg/Germany).\n(§2) First the anti-FolR1 IgGs were analyzed by single injections (Table 1) to characterize their crossreactivity (to human, murine and cyno FolR1) and specificity (to human FolR1, human FolR2, human FolR3). Recombinant biotinylated monomeric Fc fusions of human, cynomolgus and murine Folate Receptor 1 (FolR1-Fc) or human Folate Receptor 2 and 3 (FolR2-Fc, FolR3-Fc) were directly coupled on a SA chip using the standard coupling instruction (Biacore, Freiburg/Germany). The immobilization level was about 300-400 RU. The IgGs were injected for 60 seconds at a concentration of 500 nM."}, "human FolR1": {"molecular_target": "human FolR1 (Homo sapiens, UniProt P15328)", "conditions": "IgG injected for 60 seconds at 500 nM", "method": "as §1, §2"}, "human FolR3": {"molecular_target": "human FolR3 (Homo sapiens, UniProt P41439)", "conditions": "IgG injected for 60 seconds at 500 nM", "method": "as §1, §2"}, "human FolR2": {"molecular_target": "human FolR2 (Homo sapiens, UniProt P14207)", "conditions": "IgG injected for 60 seconds at 500 nM", "method": "as §1, §2"}, "cynomolgus FolR1": {"test_system": "cynomolgus FolR1", "conditions": "IgG injected for 60 seconds at 500 nM", "method": "as §1, §2"}, "[2]": {"test_system": "cyno Folate Receptor 1 Fc fusion", "conditions": "monovalent binding (affinity), analyte cyFolR1", "method": "as §1\n(§3) For affinity measurement, direct coupling of around 6000-7000 resonance units (RU) of the anti-human Fab specific antibody (Fab capture kit, GE Healthcare) was performed on a CM5 chip at pH 5.0 using the standard amine coupling kit (GE Healthcare). Anti-FolR1 IgGs or T cell bispecifics were captured at 20 nM with a flow rate of 10 μl/min for 20 or 40 sec, the reference flow cell was left without capture. Dilution series (6.17 to 500 nM or 12.35 to 3000 nM) of human or cyno Folate Receptor 1 Fc fusion were passed on all flow cells at 30 μl/min for 120 or 240 sec to record the association phase. The dissociation phase was monitored for 240 s and triggered by switching from the sample solution to HBS-EP. The chip surface was regenerated after every cycle using a double injection of 60 sec 10 mM Glycine-HCl pH 2.1 or pH 1.5. Bulk refractive index differences were corrected for by subtracting the response obtained on the reference flow cell 1. The affinity constants for the interactions were derived from the rate constants by fitting to a 1:1 Langmuir binding using the Bia Evaluation software (GE Healthcare)."}, "[3]": {"molecular_target": "human Folate Receptor 1 Fc fusion (Homo sapiens, UniProt P15328)", "conditions": "monovalent binding (affinity), analyte huFolR1", "method": "as §1, §3"}, "huFolR1-Fc": {"test_system": "huFolR1-Fc", "experiment": "SPR epitope binning", "format": "binding, human", "conditions": "label = immobilized binder; 500 nM", "method": "500 nM huFolR1-Fc was then captured for 60 s, followed by 500 nM of the different binders for 30 s. The surface was regenerated with two injections of 10 mM glycine pH 2 for 30 s each."}, "[4]": {"test_system": "cynomolgus Folate Receptor 1 (FolR1-Fc)", "conditions": "bivalent binding (avidity), ligand cyFolR1", "method": "as §1\nThe avidity of the interaction between the anti-FolR1 IgGs or T cell bispecifics and the recombinant folate receptors was determined as described below (Table 9). Recombinant biotinylated monomeric Fc fusions of human, cynomolgus and murine Folate Receptor 1 (FolR1-Fc) were directly coupled on a SA chip using the standard coupling instruction (Biacore, Freiburg/Germany). The immobilization level was about 300-400 RU. The anti-FolR1 IgGs or T cell bispecifics were passed at a concentration range from 2.1 to 500 nM with a flow of 30 μL/minutes through the flow cells over 180 seconds. The dissociation was monitored for 600 seconds. […] The binding curves resulting from the bivalent binding of the IgGs or T cell bispecifics were approximated to a 1:1 Langmuir binding and fitted with that model (which is not correct, but gives an idea of the avidity). The apparent avidity constants for the interactions were derived from the rate constants of the fitting using the Bia Evaluation software (GE Healthcare)."}}}
{"molecule": "B1", "values": [{"measurement": "binding to erythrocytes", "setting": "erythrocytes", "value": "could not observe any specific binding"}, {"measurement": "ka", "setting": "[1]", "value": 861000, "unit": "M⁻¹ s⁻¹"}, {"measurement": "kd", "setting": "[1]", "value": 0.000121, "unit": "s⁻¹"}, {"measurement": "Binding to muFolR1", "setting": "murine FolR1", "value": "−"}, {"measurement": "Binding to huFolR1", "setting": "human FolR1", "value": "+"}, {"measurement": "Binding to huFolR3", "setting": "human FolR3", "value": "−"}, {"measurement": "Binding to huFolR2", "setting": "human FolR2", "value": "−"}, {"measurement": "Binding to cyFolR1", "setting": "cynomolgus FolR1", "value": "+"}, {"measurement": "ka", "setting": "[2]", "value": 297000, "unit": "M⁻¹ s⁻¹"}, {"measurement": "kd", "setting": "[2]", "value": 0.000193, "unit": "s⁻¹"}, {"measurement": "ka", "setting": "[3]", "value": 289000, "unit": "M⁻¹ s⁻¹"}, {"measurement": "kd", "setting": "[3]", "value": 0.000159, "unit": "s⁻¹"}, {"measurement": "binding of analyte in solution 9D11 TCB to huFolR1 captured on the immobilized binder", "setting": "huFolR1-Fc", "value": "+/−"}, {"measurement": "binding of analyte in solution 16D5 TCB to huFolR1 captured on the immobilized binder", "setting": "huFolR1-Fc", "value": "+"}, {"measurement": "binding of analyte in solution 21A5 TCB to huFolR1 captured on the immobilized binder", "setting": "huFolR1-Fc", "value": "+"}, {"measurement": "binding of analyte in solution 36F2 IgG to huFolR1 captured on the immobilized binder", "setting": "huFolR1-Fc", "value": "−"}, {"measurement": "binding of analyte in solution Farletuzumab to huFolR1 captured on the immobilized binder", "setting": "huFolR1-Fc", "value": "−"}, {"measurement": "binding of analyte in solution Mov19 IgG to huFolR1 captured on the immobilized binder", "setting": "huFolR1-Fc", "value": "−"}, {"measurement": "ka", "setting": "[4]", "value": "1.29e+06", "unit": "M⁻¹ s⁻¹"}, {"measurement": "kd", "setting": "[4]", "value": 0.000139, "unit": "s⁻¹"}]}
